Reference: the NTF2 design screens of Basanta et al. (2020)

Assay: protease stability score; higher = more stable; yeast display proteolysis, trypsin and chymotrypsin;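 also: log10 excess protease needed over predicted unfolded state with 0 meaning unfolded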

Point of comparison: “DEHEMKKVADQIVDILRTGDQDRFRDLADPNVRVSVGDKTVHGRHQAQQQVKRLKDQVDHVQLKDMKIHGNTVVVKAHVEINGNTTDRDVKFELHNGRVSHLTIDPEAQKVMDT”, protease stability score 0.273. Against it:
- DEHANETVKRILRDIRHNNPHEIRKNMDPNAKVVIGDKTIHGREEAARQLKREMHEIRVEVKHIDMKVHDGRVNVNFDVVLDSNGNPQRQSYRMVVRVHNGTVHYLSKSDTR — lower, -0.041
- DEHAQKLLEKEKDALERNNPDHFRDMVDKDARLRVGNKVIHGREQVSEDVERKRDEMRYRFEIKHVQVHNGQIDADVVQVVNVNGHPVRNKYRITVNVTNGRAKQVTVRIDEDTLRKMDR — lower, -0.027
- DEHAQKRASQLVDKQNTGNPESIANYMDPNAKVQVGENRVHGREEIETLVKQKNKEARYEYNVESMSIQGDKLTMHLHAVVEINGQPLEFKVRVDFTFHNGRIRDVYYQLPEELLEELKR — lower, 0.165
- DEHARDRATQMIEAIHNGDPDTLQELLDEDAHIQIGDKEIHGHDQASRELRRRREEQNVDVRVRDLKVTGERVKIDVEIRVSHNGQPTETKVTIDVEAHNGKIKDLRMRTSQ — lower, 0.15
- DEHARHLVSELLRALESGDPDQLVKMADPNVEAQIGDKRYTGRSHMKKMQEDLKREMRYHVTDFHVEVNGNTAVADVDASVEHNGQPRRHRYRIVITFENGRAKDFSIQRDK — higher, 1.12
- DEHARKQFEDLIRALSTGDPERVAQLVDPNAHFQVGDQTIHGREHLMEDVKRRRDKMRMELHVDHVKVDENHLDAIIRVVQDTNGDPDHKKYRLVAQWQNGRVNNQEMQETS — higher, 0.541
- DEHARRLVKKFIEAMKHGDPDKLMKLADPNVKFDIGDHQFKGSHEANKWLERMVRHMRFSLKVDSVKAHNGRVEVDAVFTFEVNGKPDQQRFTLDFHFNNGRVQNLTWDVDPRDWRKQLK — higher, 0.73
- DEHARSVMRQFVHALNTGDPDEASRQVDKNVKATYGDKSVHGRESVKEWLEKLVKRMRVEVDLKTVHAQGDTVTAKAHLTAEVNGRPFKVDVHIEATVQNGKIKELVVDFDEHFTEQVES — higher, 2.56
- DEHAVEVAKKIVEAWKDGDPKRFNELFDPNAQLRVGDHHFHGSHEADRHMQTINKEQRVRYKNVRVESRPGRVEVRVDMEKTHDGRPRRSEFTVQINVHDGQVKKLTVQEDG — lower, 0.239
- DEHAVRRLQEFARVLERGDESKAEQYLDPEVRITVGDREINGMKTFNNFLQEVSRQMRFSLQHVEARARNGKARIIMHFQVDHNGNPEQQRIDITASLHNGRMKRMHMRTDR — lower, 0.031
- DEHDAAKRAEEAVRRANSGDEKDALRLIDPNATVQVGDKNYHGREQVRRVVEELTERFDHIQFKHVSLQGNRVTARADATHNGRTEKMIFIVRAHNGRVKSWKIESS — lower, -0.093
- DEHDAESIQSVLTNGNFESMDELADKDVHVDVGNKRYHGQEQFRTLQTHYKNRVDHVDMHRLTQDGEKINADMRAVVNGKDFQFELVIKVHNGRIRRLQLNFTSDSQDKEHEERLR — higher, 0.496
- DEHDEARKFADKFVKALRDGDETLVNKLVDPNAKFVIGDKDYHGRKAASTLMHEWKNRVDEQEVKIKRISVRNGRANVDVEMVMNVDGHRVHFRVIIYAERRDGRLRVVRIEAR — higher, 1.52
- DEHDEKIVQTFLTALRTGDEEELQKNMDPNVSVHIGDQEVNGREEIARQLKKEQDEMRVDIRRYHISAHNGRVEVRIKFTAEVNGKPNRFTVVYDFVLHNGHIEKMHVKMSREDKKKKKQ — lower, -0.189
- DEHDITKIMEEIAKVIRNNDEKRLVEMADPNVRVIVGDKEFQGRDEMEKFNHEYSRQADKVQVVSVNVNGNRITIEVTANINGRDLQFVVVFEIKNGTIENVHVNFTNPEVLRQAES — higher, 1.19
- DEHDLDKWRQVMEHNDFDKLVRLADPNVKIVVGDQEYHGREQYKELMDKLEHHVDHMELHSVSITNGEVHARLTVIINGKSIEYVFKFVVDNGKLKKLRIQFTDPEDEKIWKRAMS — higher, 1.7
- DEHDMAHKFFHDLVEAAKTGDRDKIKRLADPNVKIEYGDKRLHGHKDYANFIQKIVERVDSVNFQLQSVSVTGDKVRMIYTLDVVENGQKRTDRLQIEAQIHNGDIIAKRVVEG — higher, 0.873
- DEHDTEVAERALNDLKTGDPDKVTEMADKHVKYVVGEKRIQGRETYAKTVEKERDEIRVDWSVHNIQVHNGKLDVSAEFRFTVNGQPNSDSARWEFTLRNGKIQEVVMKVSDRFLKQMRS — lower, -0.15
- DEHDVRELLKALTTGNEDDMRKMLDKDVTANIGNFRVKGREQQLTLIRRMLERADHLSVTSFSSHNGNVEVDVQVTVDGRRIRYVIRAQAHNGKVNSVRMDVTDHSVEQTLRHLHS — higher, 1.36
- DEHEAEKLLKLLTENDPRQFQNEADKNVRVFYGDKEVHGREQFHTWVQRVRERVDTLEIKRVETRPGRLEVKFRVNVNGQTLEMVLVIVVHNGKIQDVKLHARDHDVMKRWKEAVS — higher, 0.82
- DEHEAKKMSEMFKNLATGNPDTAKRQFDKDASVQIGDKVVHGREHLSRTLKRRRDQIRVVVEDVKVTVNGDKAEIQVIFSWEHNGEPRRSVYFATVHWHNGNVKKVTVTEQS — lower, -0.121
- DEHEEAKKVADRMIEVEKTGDEDSLTENFDPNVRFKIGDRTYHGEKDMQQLLREIKERADHIDIDVKHVTAHNGRADIDRVRVIQVDGQRRKQRIRMDLTFHNGRLHLKQMKVD — higher, 0.31
- DEHEKMKKHMTEWRSAFKRGDPDTVRKLADKDVDVEVGDKVLHGREQVANHVVDLARTVDHVDIRIETMEVNGDHFVLVMSAVFDVNGKRDERKFVLVAKLHNGTIKVKNMKRS — lower, 0.07
- DEHEKQKKAKDAADLIRHNNPERVAELFDEDARVRVGDHTYHGREHIVRVLQTLVDQIDHMQLTDLDVHGETLRLHIVMQINGKKVDMQLDIELKNGKMKRMRFDPDRVRDVQK — higher, 0.466
- DEHELNKFEQLLRDRETGDEEHLKRLMDKDARVNVGDKNVHGREEAANQQVERVKRMDVRILHMDLKDNNGKINADITRIIHTNGHPDKHQFVLTVDVKNGRVQNIRQDDTS — lower, -0.284
- DEHELREILDKANEAWKRNDPDEMVKQADKDVEVKIGDKDFHGREEAHEAMKELHDRADHISIRDYDASGNKARIHMYIVVNGRRVDFVVIIVVRNGRIQKIELNVRDEKAKSNLKQ — higher, 1.09
- DEHELRRQADDFWHAVRTGDEKRIVELLDPNAHAVVGDKRYHGEKQIRQLVRSMREQVDTFRVSSITVSGDDIEIDIVLNVNGREFRATIVLRQHNGKVTELKLHPNINRALES — higher, 1.28
- DEHFETVARLMLHALEDNNPEVLRENLDPNARVQVGDQDLTGRDTVVKVAHRLLTEIRIHIQIDSVRNQGDTVEFDAKFRANVNGRPYSVKVVIVYVVRNGRAVHIQVRMDPDFLRKLRK — higher, 0.938
- DEHHAAKRLMDNLLQAMRTGDTDTLKKLADPNVRIDVGDKTYHGREQFLQWMKELVKHVDSVHVDIKRFTVDGNNATIDAEARRDVNGNDHSEKVSVVAEVSGDKMHLKEIQYR — higher, 1.04
- DEHHEARKMIKHYFELLNQGNFEEAAKLFDEDAKVHVGDRTVNGREQIHDWFTRMRKQIDEFTVRLTKVEVSNGHVRVDFYYTKNHNGKSKSNSVDMIFQNNNGRIRAKSMQEK — lower, -0.085
- DEHHRKEFEDMLRVEQHGNEEQLKRYMDPNARFRYGDKKVHGREEVVRQISKRRHKLRMQYDTWDIKVKGDKITADLKYVEHQNGQPEDVRVNVSIRFHNGKLVEAHRERDK — lower, -0.001
- DEHHTQEARKFLENQQTGNETELQKYADPNASAQIGDKRVHGMEKFAHTIRKEVDELRMTIHDVRFDANGEKVIVHVDVQYDHNGRPERATMVVLFKHNNGKATEITARYDK — higher, 0.411
- DEHIAKDLHRLAETGNWQELVEQADKDAKAKVGDKTYHGREDLQTLNRQWNEHVDHENLERVTLNPDHLVILFKMQVNGKDFAANVRIRRHNGRVEHIQVDARDDEQKKILHELLS — higher, 0.657
- DEHIDHMYKEILRLLETGNSEEAQKLLDPNVKVVVGDKRYHGREDYARDMVRRIKEMDVQRDFDHVSVHNGKVDADAKQTTNSNGRPSSNTVRITIVQHNGRIHMIKIDSRQ — lower, 0.041
- DEHIEEVATKHLKAQHTNDPKQFRDLADKDVEVEVGDKNIHGREQNANEQKRRRDEWEFEMKIDHISAHDGRAILRVKINYVVNGKPINVDAVIRLHAHNGTIKELSVQVDPDQMREVKS — higher, 1
